According to PMC7755780, “Tetrachloroethene respiration in Sulfurospirillum species is regulated by a two‐component system as unraveled by comparative genomics, transcriptomics, and regulator binding studies”:

B1: ppceAB minimum 70-bp fragment (dsDNA)
DNA 1: ATTATTTTAAAATTAAAATCTATATCTTTCCTATAACAAAGCTATAACTTTTGTATATCATTCTTAAAAT
DNA 2: ATTTTAAGAATGATATACAAAAGTTATAGCTTTGTTATAGGAAAGATATAGATTTTAATTTTAAAATAAT

Tests used:
[1] = molecular target: T1, RR2 (PceP), OmpR-family response regulator of TCS2 (Sulfurospirillum halorespirans (DSM 13726?)) (UniProt A0A1D7TJV3); test: EMSA; details: EMSA: 10 mM HEPES pH 7.6, 2 mM MgCl2, 200 mM KCl, 0.1 mM EDTA, 5 mM DTT, 10% glycerol, 50 ug/ul Ficoll 70, 250 ng poly(dI/dC), 2.5 pmol DNA in 15 ul, room …
T1 sequence: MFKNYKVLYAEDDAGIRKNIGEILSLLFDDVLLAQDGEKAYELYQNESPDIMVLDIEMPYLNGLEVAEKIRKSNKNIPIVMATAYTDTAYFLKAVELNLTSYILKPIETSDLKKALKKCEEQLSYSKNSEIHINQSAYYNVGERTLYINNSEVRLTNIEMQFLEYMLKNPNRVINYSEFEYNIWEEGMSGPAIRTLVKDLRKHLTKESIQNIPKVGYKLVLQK

[2] = molecular target: T2, RR2 (PceP), OmpR-family response regulator of TCS2 (Sulfurospirillum halorespirans, UniProt A0A1D7TJV3 1-223); test: EMSA; minimum binding fragment; 30 or 60 pmol RR2; EMSA: 10 mM HEPES pH 7.6, 2 mM MgCl2, 200 mM KCl, 0.1 mM EDTA, 5 mM DTT, 10% glycerol, 50 ug/ul Ficoll 70, 250 ng poly(dI/dC), 2.5 pmol DNA in 15 ul, room temperature 20 min; gel with 30% triethylene glycol in 1x TAE; details: protein: recombinant; tags: Twin-Strep; chain copies: 2; label: 6-FAM; blunt
T2 sequence: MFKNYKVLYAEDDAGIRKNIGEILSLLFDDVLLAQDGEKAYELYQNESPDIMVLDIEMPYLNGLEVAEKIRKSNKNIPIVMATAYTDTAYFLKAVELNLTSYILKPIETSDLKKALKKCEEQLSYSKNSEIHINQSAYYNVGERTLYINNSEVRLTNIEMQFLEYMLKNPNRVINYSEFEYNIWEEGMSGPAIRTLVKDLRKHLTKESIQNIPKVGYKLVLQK

Molecule | binding [1] | binding result [2]
TCTATCAGATATTTTGTTAAAAATTAACTTAAAAGAGTAAAAATTATCTATTTAATAGTTACCCTATATTTCACCTATAAGTTAC (double strand) [pTCS2/SHALO_1504 f9 (lacks repeat closest to SHALO_1504 TSS)] | no binding | –
CTGCATAGAGTATTGTATAAGAAGCGAGCATGTTAAATCCCTGAAATTTTATGAATAATGTACGTATTATAAAAAAAGAAATATAGAACTTGTAGATAAAAAATATTTTCCTTCTATTTTAGTTATACAACGGTTGCATAAGTTTTAAATACAATTTTCATAATAAGTCAGATGTTAAATGGTTGTACTTGGGATCATTTAATTAAAGGTTACAAGAAGGTTTAAAATCATTATCATGATTGTATGGTAGATGATTTTTTAAGGAGTAAATATG (double strand) [prdhAB promoter] | binds more weakly | –
CATTAAATTCTTAATTACATCATTATATCACAAAAAAGGCAAGGAATGATAAAAAAGTTTTATCATCTAAGTGAAGTATTAGACAATATCATATAATTAAATAGTTAAAGTAGTATAAATAAACCGTAAAATATGCAAATAACTGCATTTATAAGCTAATATTAATAAAATATACAA (double strand) [p1552 promoter (phage CI repressor superfamily gene)] | no binding | –
CATATTCTATCCTTATTTTTAAAATATTTAATTATTATAAATGTAAGTATAGAAAATAATTATAGGTTGTTTGTAGATAATAATAATTTTTCTACTAATTCTTTAATCATTAAATAATATTCAGTAGTATTTCTATCTATCTCGATGCTCAAAAAAACACCATCAATTCTATCAATATCTACATCTATAACTTTTTCTTAA (double strand) [p1494 (ahpD-like gene promoter)] | binds more weakly | –
ATTGTCTGATATATTGACAAAATCTTTATAAAATCTCCAAAAATATAAAAAAAGAAAAGTATTTACTTATTACTTCGTAAATATTATTAACTTTCATTATTTTAAAATTAAAATCTATATCTTTCCTATAACAAAGCTATAACTTTTGTATATCATTCTTAAAATGTGAAATTAATTCATAAACACATTAAAAAATAAATAACTGTACTTGGGGTTATTTATAAAAGGTTACAAGAAGGTTTGAATACCACTGTGTAAGTTGTTACTCTTGGTATTTTTTAAGGAGGAAGTATG (double strand) [ppceAB promoter] | binds | –
CATGTGTGAACCTATCCTATAGTTTATAACTATGATTCTATCAGATATTTTGTTAAAAATTAACTTAAAAGAGTAAAAATTATCTATTTAATAGTTACCCTATATTTCACCTATAAGTTACCTATAAATATTCATAAAATTCAAGGTTCTCTCTTTATTGCACACAAAGTTACTACAAGTTTTATGTACT (double strand) [pTCS2/SHALO_1504 intergenic region (pTCS2)] | binds | –
TTCACCTATAAGTTACCTATAAATATTCATAAAATTCAAGGTTCTCTCTTTATTGCACACAAAGTTACTACAAGTTTTATGTACT (double strand) [pTCS2/SHALO_1504 f2 (first CCTATA incomplete)] | binds more weakly | –
B1 | – | binds
